The data set concerns Cascade/I-C (Cas5, Cas8c, Cas7 with crRNA) (Bacillus halodurans C-125). Briefly: EMSA?
A general note: A gel shift assay detects complexes by their altered migration in electrophoresis.

For “TACTTCCAATCCAATGCAGGTACCATCGAAAGTAACTCCATCCATAACTAAGCAACCTGTACTAGTAATCGAAAGCTTTTATCCACTTCCAATGTTATTA (double strand) [100 bp target, TTC PAM]”, the Kd came to 148 nM.

What is called Kd is a measure of binding affinity in units of concentration. A high value points to weaker binding.

The values above are taken from article doi:10.1101/666776.
